Measured values published in the Human Domainome abundance scans (Beltran et al. 2025).

B1: Transcription elongation factor A N-terminal and central domain-containing protein, residues 30 to 77; numbered along this chain, Q8N8B7 (parent)
chain: LTELETIYVTKEHLQETDVVRAVYRVLKNCPSVALKKKAKCLLSKWKA

Variants of: B1
Test: abundance fitness (aPCA) (normalised: wild type 0, dead -1); higher = more abundant; growth selection in yeast, the domain comes from the species named
Details: Homo sapiens

Abundance fitness, by site and new letter:
V33: T -0.146; D -0.086; F 0.427; Q 0.007; G 0.012; M -0.027; S 0.089; P 0.129; A -0.016; E -0.208; C 0.041; W -0.096; L 0.174; Y -0.327; R 0.155; H -0.527; N -0.279
L27: K -0.845; W -0.031; T -0.883; F -0.754; D -0.901; C -0.994; Y -0.352; I -0.053; R -0.848; S -0.966; V -0.445; N -0.846; G -0.88; Q -0.648; E -0.932; P -0.444; A -0.593
L35: F -0.293; S -0.8
S32: L 0.355; H 0.131; R 0.022; D -0.389; V 0.289; A 0.103; I 0.27; Q -0.439; K -0.155; C 0.367; F 0.211; P 0.039; N -0.017; T -0.022
V26: N -0.152; M 0.206; W 0.447; A 0.154; C 0.15; E -0.836; F 0.126; D -0.727; T 0.279; L -0.172; R 0.211; S -0.206; P -0.131; G -0.095; K -0.149; Q -0.183; Y 0.491; I -0.105
P31: A 0.119; I 0.371; F 0.511; M 0.457; Y -0.021; G 0.298; L 0.355; W 0.382; E -0.357; S 0.263; K 0.291; R 0.188; Q -0.017; N -0.016; T 0.341; V 0.337; H -0.349
N29: D -0.193; G -0.282; A -0.086; V -0.186; F -0.09; R 0.144; E -0.536; L 0.004; Y -0.466; S -0.144; T 0.024; P -0.904; I -0.167; C 0; Q -0.259; M 0.052; K -0.029
K36: G -0.109; F -0.007; A -0.063; C -0.225; H -0.633; I -0.152; E -1.32
A34: M -0.163; L -0.279; Y -0.174; E -0.308; Q -0.464; T -0.161; F -0.305; W -0.176; K 0.148; D 0.097; G -0.028; I -0.826; C 0.149; N 0.266; V -0.489; P -0.378; H -0.057
R25: Y -0.805; N -0.091; W -0.837; P -0.812; V -0.849; T -0.528; S -0.257; Q -0.038
C30: V 0.062; M 0.035; H -0.743; N -0.274; E -0.935; I 0.204; D -0.442; P -0.244; L 0.075; Q -0.189; G 0.012; W 0.119; S -0.514; A -0.338; Y -0.632; F 0.121
K28: I -0.149; A -0.509; E -0.679; Q -0.734; M -0.749; D -0.789; H -0.435; N -0.445; G -0.402; V -0.142; L -0.237; R -0.033; F -0.247; S -0.368; T -0.169; P -0.379; W 0.04
